Reference: patent publication US10525246B2, “Microdevice and method for transdermal delivery and sampling of active substances” (NANOMED SKINCARE, INC., priority 2006, dated 2020)

Assay: Serum insulin concentration vs. time in diabetic rat after administration of insulin by the microdevice with occlusive layer
Format: in vivo
Text: The serum concentration reached 110±5.37 μIU/ml and stayed relatively constant at this level when the occlusive layer was applied.

**Q.** Which “Serum insulin concentration after removal of the occlusive layer” value (after removal of the occlusive layer) does the source give for “Novolin R®: Novolin R insulin administered to a diabetic rat by the present microdevice” here?
**A.** Its value is “rapidly dropped”.

**Q.** What about the Serum insulin concentration (microdevice administration, occlusive layer applied, level reached and stayed relatively constant) of the same substance?
**A.** The Serum insulin concentration was 110±5.37 μIU/ml.
